We go through 1 molecule from patent US20200216522A1 (DENALI THERAPEUTICS, published 2020).

This test addresses T1, Tau 186-205 peptide (17G2.A1 peptide) (human, N-terminal biotin).
T1 peptide: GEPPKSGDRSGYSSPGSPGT
Kind of test: direct ELISA on biotinylated peptide. The method, then:
The peptides were diluted in 3% BSA/TBST in 0.5 log dilutions starting at 1 μg/mL and bound to neutravidin coated plates. Plates were washed 5× with TBST between all steps. 17G2.A1 was diluted to 5 μg/mL in 3% BSA/TBST and incubated for 1 hour at room temperature, followed by incubation with anti-mouse IgG-HRP (Novex) diluted 1/5000 in BSA/TBST for 45 minutes at room temperature. ELISAs were developed with 50 μL of 1-step TMB Ultra.
(In general: In an ELISA, binding on a coated surface is turned into a signal by an enzyme label.)

B1: murine anti-Tau hybridoma antibody 17G2.A1 (antibody, V domains shown)
VH: QVQLQQPGAELVGPGSSVKLSCKASGYTFINYWIDWMKQSPGQGLEWIGNIYPSDSESHYNQKFTDKATLTVDISSSTAYLQLSSLTSEDSAVYYCALYSKGYWGQGTSVTVSS
VL: DVLMTQTPLSLPVTLGDQASISCRSSQNIVHTNGNTYLEWYLQKPGQSPKLLIYKLSSRFSGVPDRFSGSGSGTDFTLKISRVEAEDLGVYYCFQGSHLPFTFGGGTKLEIKR
notes: mouse IgG from hybridoma; also called anti-Tau 17G2.A1
As for B1, the binding result is “binds”.
